Source: the supplement of paper PMC10065799, “High-throughput profiling of sequence recognition by tyrosine kinases and SH2 domains using bacterial peptide display” (eLife, 2023)

How the values were obtained:
AncSZ = experiment: phosphorylation enrichment, bacterial display (enrichment ratio); higher = better substrate or ligand; peptides without Tyr show the background
Fes = Fes (UniProt P07332); experiment: as above
Fer (mouse) = experiment: as above
Fyn = Fyn (UniProt P06241); experiment: as above
EPHB1 = EPHB1 (UniProt P54762); experiment: as above
Chain of EPHB1 (P54762 whole entry, looked up): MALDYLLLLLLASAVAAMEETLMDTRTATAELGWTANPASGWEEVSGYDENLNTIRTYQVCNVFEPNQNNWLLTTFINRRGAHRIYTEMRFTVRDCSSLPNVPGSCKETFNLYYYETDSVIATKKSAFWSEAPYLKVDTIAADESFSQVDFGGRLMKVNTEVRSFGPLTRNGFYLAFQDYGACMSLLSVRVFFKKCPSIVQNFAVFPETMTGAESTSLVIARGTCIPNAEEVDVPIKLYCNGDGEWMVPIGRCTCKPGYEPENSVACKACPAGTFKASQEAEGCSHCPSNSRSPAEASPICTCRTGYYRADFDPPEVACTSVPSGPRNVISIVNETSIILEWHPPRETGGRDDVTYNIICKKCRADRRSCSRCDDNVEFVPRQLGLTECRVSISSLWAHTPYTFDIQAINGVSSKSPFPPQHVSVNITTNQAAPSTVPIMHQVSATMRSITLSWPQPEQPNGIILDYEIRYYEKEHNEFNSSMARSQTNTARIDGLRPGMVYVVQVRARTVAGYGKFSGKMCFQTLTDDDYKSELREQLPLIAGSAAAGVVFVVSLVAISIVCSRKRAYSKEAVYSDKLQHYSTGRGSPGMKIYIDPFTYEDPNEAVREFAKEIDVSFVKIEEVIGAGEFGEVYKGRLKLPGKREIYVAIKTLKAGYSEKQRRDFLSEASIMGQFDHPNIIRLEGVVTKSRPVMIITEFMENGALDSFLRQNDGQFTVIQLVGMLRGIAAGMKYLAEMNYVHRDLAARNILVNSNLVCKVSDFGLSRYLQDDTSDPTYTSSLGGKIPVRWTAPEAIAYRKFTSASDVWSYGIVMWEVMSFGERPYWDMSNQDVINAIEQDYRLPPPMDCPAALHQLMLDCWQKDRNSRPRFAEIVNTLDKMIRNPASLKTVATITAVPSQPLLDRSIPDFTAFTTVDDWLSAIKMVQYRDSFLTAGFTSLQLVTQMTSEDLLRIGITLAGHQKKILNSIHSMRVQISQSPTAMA

Hck = Hck (UniProt P08631); experiment: as above
FGFR1 = FGFR1 (UniProt P11362); experiment: as above
Jak2 = Jak2 (UniProt O60674); experiment: as above
Chain of Jak2 (O60674 whole entry, looked up): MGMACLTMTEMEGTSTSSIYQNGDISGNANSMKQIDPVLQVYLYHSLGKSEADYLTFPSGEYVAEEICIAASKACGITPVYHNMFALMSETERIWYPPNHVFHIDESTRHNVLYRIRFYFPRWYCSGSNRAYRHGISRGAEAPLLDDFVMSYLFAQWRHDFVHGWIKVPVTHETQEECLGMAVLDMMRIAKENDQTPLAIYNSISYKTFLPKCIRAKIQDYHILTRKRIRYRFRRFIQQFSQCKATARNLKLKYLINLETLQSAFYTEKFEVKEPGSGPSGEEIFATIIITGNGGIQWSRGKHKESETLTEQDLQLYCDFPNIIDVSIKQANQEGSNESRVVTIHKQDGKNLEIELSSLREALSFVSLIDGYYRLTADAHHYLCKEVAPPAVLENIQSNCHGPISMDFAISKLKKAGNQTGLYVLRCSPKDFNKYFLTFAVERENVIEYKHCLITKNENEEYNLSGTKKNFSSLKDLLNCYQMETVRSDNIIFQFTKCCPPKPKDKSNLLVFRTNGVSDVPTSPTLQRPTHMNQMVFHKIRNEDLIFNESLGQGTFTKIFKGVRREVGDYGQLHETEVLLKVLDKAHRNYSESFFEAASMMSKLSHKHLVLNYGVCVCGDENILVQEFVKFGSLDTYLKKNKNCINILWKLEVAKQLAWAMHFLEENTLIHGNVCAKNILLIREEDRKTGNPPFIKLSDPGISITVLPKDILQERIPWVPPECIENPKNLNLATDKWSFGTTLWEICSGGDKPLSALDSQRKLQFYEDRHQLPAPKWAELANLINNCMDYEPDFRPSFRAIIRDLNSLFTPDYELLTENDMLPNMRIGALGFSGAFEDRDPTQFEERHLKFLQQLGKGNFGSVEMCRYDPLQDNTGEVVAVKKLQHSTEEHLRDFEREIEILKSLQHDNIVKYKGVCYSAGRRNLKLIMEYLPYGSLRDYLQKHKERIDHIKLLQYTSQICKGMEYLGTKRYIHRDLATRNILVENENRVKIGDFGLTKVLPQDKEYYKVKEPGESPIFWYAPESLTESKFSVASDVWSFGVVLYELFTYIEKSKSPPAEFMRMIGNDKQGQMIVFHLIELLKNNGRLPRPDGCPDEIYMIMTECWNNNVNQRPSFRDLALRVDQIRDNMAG

FGFR3 = FGFR3 (UniProt P22607); experiment: as above
Chain of FGFR3 (P22607 whole entry, looked up): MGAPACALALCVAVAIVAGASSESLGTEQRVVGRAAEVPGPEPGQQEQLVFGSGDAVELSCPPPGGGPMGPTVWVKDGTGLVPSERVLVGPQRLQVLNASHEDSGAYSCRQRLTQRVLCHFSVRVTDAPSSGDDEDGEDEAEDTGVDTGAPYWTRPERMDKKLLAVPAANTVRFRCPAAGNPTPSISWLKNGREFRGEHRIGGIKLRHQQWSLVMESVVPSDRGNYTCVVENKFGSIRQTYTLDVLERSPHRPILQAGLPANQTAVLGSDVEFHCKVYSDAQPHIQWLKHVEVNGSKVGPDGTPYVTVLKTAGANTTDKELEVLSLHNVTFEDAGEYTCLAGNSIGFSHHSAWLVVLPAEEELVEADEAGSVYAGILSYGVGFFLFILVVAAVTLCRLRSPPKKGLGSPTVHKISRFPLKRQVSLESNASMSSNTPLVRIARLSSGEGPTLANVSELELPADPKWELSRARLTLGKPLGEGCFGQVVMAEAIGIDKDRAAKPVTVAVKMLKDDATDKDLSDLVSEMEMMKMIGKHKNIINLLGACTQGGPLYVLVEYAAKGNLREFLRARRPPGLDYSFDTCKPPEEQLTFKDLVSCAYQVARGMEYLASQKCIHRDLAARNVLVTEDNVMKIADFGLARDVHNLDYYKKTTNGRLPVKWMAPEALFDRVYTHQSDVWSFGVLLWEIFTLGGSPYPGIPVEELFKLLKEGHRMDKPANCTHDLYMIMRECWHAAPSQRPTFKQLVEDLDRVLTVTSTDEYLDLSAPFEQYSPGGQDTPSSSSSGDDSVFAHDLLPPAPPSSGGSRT

c-Src = experiment: as above
c-Abl (mouse) = experiment: as above
MERTK = MERTK (UniProt Q12866); experiment: as above
Chain of MERTK (Q12866 whole entry, looked up): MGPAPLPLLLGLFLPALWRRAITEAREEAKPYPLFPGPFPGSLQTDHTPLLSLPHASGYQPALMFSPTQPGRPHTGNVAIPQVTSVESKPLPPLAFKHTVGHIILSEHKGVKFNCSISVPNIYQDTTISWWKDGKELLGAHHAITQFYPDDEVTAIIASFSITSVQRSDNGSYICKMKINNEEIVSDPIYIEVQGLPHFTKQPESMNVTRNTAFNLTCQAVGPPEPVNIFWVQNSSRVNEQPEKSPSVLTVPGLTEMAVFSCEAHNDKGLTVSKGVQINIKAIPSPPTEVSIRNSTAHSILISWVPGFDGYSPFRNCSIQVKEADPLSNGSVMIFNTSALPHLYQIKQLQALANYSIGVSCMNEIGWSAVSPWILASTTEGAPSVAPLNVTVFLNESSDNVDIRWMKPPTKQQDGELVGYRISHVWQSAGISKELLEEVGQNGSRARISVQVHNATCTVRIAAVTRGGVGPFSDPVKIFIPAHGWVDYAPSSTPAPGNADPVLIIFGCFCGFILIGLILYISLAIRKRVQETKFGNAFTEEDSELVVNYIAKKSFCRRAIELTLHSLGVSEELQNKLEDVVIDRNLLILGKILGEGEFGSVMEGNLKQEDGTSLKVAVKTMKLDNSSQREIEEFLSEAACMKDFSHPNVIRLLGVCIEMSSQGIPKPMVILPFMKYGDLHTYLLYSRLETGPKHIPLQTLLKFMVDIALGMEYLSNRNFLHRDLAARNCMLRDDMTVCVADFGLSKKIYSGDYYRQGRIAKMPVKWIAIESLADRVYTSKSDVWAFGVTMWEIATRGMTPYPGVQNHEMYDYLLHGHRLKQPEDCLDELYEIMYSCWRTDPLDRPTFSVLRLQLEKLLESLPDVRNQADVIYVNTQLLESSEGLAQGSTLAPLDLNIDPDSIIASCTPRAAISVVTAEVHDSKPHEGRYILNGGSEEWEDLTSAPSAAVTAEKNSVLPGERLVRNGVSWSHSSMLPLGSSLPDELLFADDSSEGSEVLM

EPHB2 = EPHB2 (UniProt P29323); experiment: as above
c-Src SH2 = experiment: SH2 binding enrichment of the phosphorylated peptide, bacterial display (enrichment ratio); higher = better substrate or ligand; peptides without Tyr show the background
SHP2-C SH2 = experiment: as above
Grb2 SH2 = Grb2 SH2 (UniProt P62993); experiment: as above
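For SH2 binding enrichment of the phosphorylated peptide, bacterial display in this document: peptide library displayed on the E. coli surface as eCPX fusions, selected cells deep-sequenced, score is each peptide's frequency after selection divided by its frequency in the input.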
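For phosphorylation enrichment, bacterial display in this document: 11-residue human phosphosite peptides and single-mutation variants displayed on the E. coli surface, counted by deep sequencing, each peptide's frequency after selection divided by its frequency in the unselected input library; frequency after pTyr selection over input frequency; kinase dosed for 20-30% of maximal phosphorylation in three min.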

Chain of Fes (P07332 whole entry, looked up): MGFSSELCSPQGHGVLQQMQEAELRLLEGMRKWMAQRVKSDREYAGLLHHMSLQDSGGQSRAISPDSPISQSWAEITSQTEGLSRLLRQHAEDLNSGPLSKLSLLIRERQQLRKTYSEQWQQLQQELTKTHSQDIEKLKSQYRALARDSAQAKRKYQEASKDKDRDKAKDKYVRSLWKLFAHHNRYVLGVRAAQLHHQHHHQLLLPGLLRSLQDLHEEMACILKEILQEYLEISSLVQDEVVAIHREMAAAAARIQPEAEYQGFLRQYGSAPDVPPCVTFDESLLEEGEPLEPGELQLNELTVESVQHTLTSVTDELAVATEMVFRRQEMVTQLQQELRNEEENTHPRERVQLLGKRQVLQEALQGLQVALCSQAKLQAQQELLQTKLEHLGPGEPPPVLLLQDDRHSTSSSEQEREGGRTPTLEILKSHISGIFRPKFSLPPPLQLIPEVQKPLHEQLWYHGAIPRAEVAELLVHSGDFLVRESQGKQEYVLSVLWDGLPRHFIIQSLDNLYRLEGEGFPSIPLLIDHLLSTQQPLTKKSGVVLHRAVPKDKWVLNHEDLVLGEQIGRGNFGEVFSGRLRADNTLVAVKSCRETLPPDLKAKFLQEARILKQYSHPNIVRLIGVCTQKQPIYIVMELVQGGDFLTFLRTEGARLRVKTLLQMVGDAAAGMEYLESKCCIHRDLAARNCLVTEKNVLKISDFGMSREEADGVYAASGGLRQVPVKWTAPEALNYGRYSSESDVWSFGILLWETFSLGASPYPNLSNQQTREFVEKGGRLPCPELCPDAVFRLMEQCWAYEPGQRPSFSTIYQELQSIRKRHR

Sequence | SH2 binding enrichment (c-Src SH2) | SH2 binding enrichment (SHP2-C SH2) | SH2 binding enrichment (Grb2 SH2) | phosphorylation enrichment (AncSZ) | phosphorylation enrichment (Fes) | phosphorylation enrichment (Fer (mouse)) | phosphorylation enrichment (Fyn) | phosphorylation enrichment (EPHB1) | phosphorylation enrichment (Hck) | phosphorylation enrichment (FGFR1) | phosphorylation enrichment (Jak2) | phosphorylation enrichment (FGFR3) | phosphorylation enrichment (c-Src) | phosphorylation enrichment (c-Abl (mouse)) | phosphorylation enrichment (MERTK) | phosphorylation enrichment (EPHB2)
ANAYIYDVQLP [L1CAM_Y420_V421D] | 0.773 | 1.54 | 0.854 | 1.25 | 1.05 | 1.72 | 10.3 | 3.15 | 6.89 | 0.65 | 0.905 | 0.89 | 7.22 | 0.954 | 9.63 | 2.78
TQKLAYVELQQ [CENPF_Y700_M701V] | 0.932 | 1.75 | 0.874 | 1.07 | 1 | 0.449 | 0.445 | 0.507 | 0.453 | 0.754 | 0.904 | 0.643 | 0.525 | 1.03 | 0.395 | 0.561
IALSKYGRVKR [FGF6_Y186] | 0.501 | 0.447 | 0.711 | 0.61 | 0.564 | 0.372 | 0.358 | 0.32 | 0.412 | 0.359 | 0.57 | 0.373 | 0.463 | 0.552 | 0.438 | 0.424
EKPAKYDDIKK [GAPDH_Y255] | 1.34 | 0.662 | 0.657 | 0.782 | 1.01 | 0.392 | 0.316 | 0.441 | 0.426 | 0.391 | 0.745 | 0.503 | 0.352 | 0.632 | 0.334 | 0.452
YRAVKYLQMVG [AVPR2_Y117_C112Y] | 0.372 | 2.33 | 0.709 | 0.95 | 0.827 | 0.429 | 0.397 | 0.582 | 0.584 | 0.552 | 0.766 | 0.653 | 0.36 | 0.621 | 0.385 | 0.539
MARDIYQASFF [LTK_Y672_R673Q_YF] | 0.466 | 0.678 | 0.972 | 0.966 | 0.887 | 3.26 | 6.4 | 2.15 | 7.31 | 0.679 | 0.992 | 0.564 | 6.07 | 5.43 | 5.44 | 1.7
YEEDSYVKRSQ [RET_Y905] | 1.43 | 0.514 | 0.719 | 1.17 | 1.23 | 0.529 | 0.489 | 0.626 | 0.49 | 0.495 | 1.09 | 0.775 | 0.544 | 0.714 | 0.51 | 0.643
GHLFACDWISI [BEST1_Y227_Y227C_YF] | 0.749 | 0.806 | 0.945 | 0.937 | 1.01 | 0.487 | 0.45 | 0.408 | 0.469 | 0.613 | 0.711 | 0.639 | 0.386 | 0.531 | 0.396 | 0.522
GFKVRYATGSI [FGFR1_Y210_W213G_YF] | 0.706 | 1 | 1.28 | 0.628 | 0.689 | 0.362 | 0.417 | 0.473 | 0.44 | 0.516 | 0.651 | 0.471 | 0.343 | 0.541 | 0.455 | 0.404
MFCAGYDTKQE [F10_Y407] | 0.495 | 0.727 | 0.65 | 1.11 | 1.47 | 0.652 | 0.539 | 0.81 | 0.632 | 0.518 | 1.38 | 0.877 | 0.584 | 0.793 | 0.48 | 0.805
FISVGYVDDTL [HLA-B_Y51_Q56L] | 0.728 | 0.896 | 1.05 | 1.12 | 1.21 | 0.652 | 0.486 | 0.738 | 0.485 | 0.572 | 1.03 | 0.801 | 0.557 | 0.772 | 0.436 | 0.736
KTGNIYRTEYG [MRPL3_Y265_M261T] | 0.463 | 0.91 | 0.829 | 0.555 | 0.633 | 0.629 | 0.488 | 0.451 | 0.496 | 0.464 | 0.414 | 0.592 | 0.424 | 0.441 | 0.425 | 0.421
YNNYGYGNDGF [HNRNPH3_Y161] | 1.85 | 0.591 | 2.52 | 0.789 | 0.924 | 0.566 | 0.577 | 3.61 | 0.455 | 0.766 | 0.673 | 0.766 | 0.505 | 0.547 | 0.759 | 6.45
AAVNGYAFGGG [ECHS1_Y137] | 0.455 | 0.647 | 0.75 | 0.495 | 0.553 | 0.473 | 0.423 | 0.347 | 0.344 | 0.435 | 0.521 | 0.406 | 0.379 | 0.548 | 0.324 | 0.389
YSIDHYLGKEM [G6PD_Y202_R198S] | 0.577 | 0.781 | 0.72 | 0.773 | 0.671 | 0.455 | 0.568 | 0.509 | 0.563 | 0.589 | 0.828 | 0.617 | 0.538 | 0.555 | 1.3 | 0.561
FADGVYQALEE [DUOX2_Y70_YF] | 0.75 | 0.882 | 1.15 | 1.49 | 1.3 | 1.1 | 3.65 | 1.97 | 3.3 | 0.696 | 0.979 | 0.666 | 3.81 | 0.749 | 1.38 | 1.5
GEAEQYVGGGG [FAT4_Y4980] | 0.464 | 0.584 | 1.16 | 0.842 | 0.87 | 0.448 | 0.465 | 0.394 | 0.44 | 0.543 | 0.746 | 0.687 | 0.327 | 0.584 | 0.371 | 0.414
EFQKKYSDADI [CKAP5_Y1860_K1857Q_YF] | 0.459 | 0.59 | 0.772 | 0.837 | 0.921 | 0.378 | 0.422 | 0.399 | 0.487 | 0.442 | 0.594 | 0.544 | 0.35 | 0.745 | 0.344 | 0.383
GKGGSYSKAEW [HLA-E_Y341] | 0.624 | 0.512 | 0.949 | 0.493 | 0.613 | 0.368 | 0.415 | 0.481 | 0.416 | 0.466 | 0.567 | 0.378 | 0.375 | 0.496 | 0.405 | 0.467
EWKQNYEESQS [MYH7_Y1460_K1459N] | 0.561 | 0.666 | 0.829 | 1.16 | 1.25 | 0.792 | 0.481 | 0.542 | 0.605 | 0.546 | 1.32 | 0.692 | 0.461 | 0.967 | 0.497 | 0.664
NTVLGYFIGCI [GARS1_Y408_R412C] | 0.438 | 0.514 | 0.906 | 1.19 | 1.31 | 0.598 | 0.491 | 0.653 | 0.467 | 0.457 | 1.18 | 0.828 | 0.465 | 0.826 | 0.381 | 0.63

The next lines start with results.

SH2 binding enrichment (c-Src SH2) | SH2 binding enrichment (SHP2-C SH2) | SH2 binding enrichment (Grb2 SH2) | Sequence | phosphorylation enrichment (AncSZ) | phosphorylation enrichment (Fes) | phosphorylation enrichment (Fer (mouse)) | phosphorylation enrichment (Fyn) | phosphorylation enrichment (EPHB1) | phosphorylation enrichment (Hck) | phosphorylation enrichment (FGFR1) | phosphorylation enrichment (Jak2) | phosphorylation enrichment (FGFR3) | phosphorylation enrichment (c-Src) | phosphorylation enrichment (c-Abl (mouse)) | phosphorylation enrichment (MERTK) | phosphorylation enrichment (EPHB2)
0.481 | 0.497 | 0.757 | KELSSYKHLTL [SLIT2_Y776_N775S] | 0.556 | 0.53 | 0.497 | 0.427 | 0.315 | 0.445 | 0.393 | 0.491 | 0.406 | 0.451 | 0.511 | 0.404 | 0.38
0.528 | 1.28 | 0.867 | AGQEDDDRLRP [RAC1_Y64_Y64D] | 1.15 | 1.28 | 0.572 | 0.608 | 0.497 | 0.591 | 0.607 | 1.12 | 0.637 | 0.46 | 0.703 | 0.439 | 0.669
0.686 | 0.716 | 1.15 | PRAEWYRDDLL [MYOM2_Y317_V321L] | 1.49 | 1.4 | 0.502 | 0.612 | 0.692 | 0.681 | 0.591 | 0.952 | 0.626 | 0.575 | 0.798 | 0.511 | 0.726
0.696 | 0.772 | 0.789 | SLVVPYEPPEV [TP53_Y220_V216L] | 1.28 | 1.29 | 0.666 | 0.62 | 0.769 | 0.663 | 0.672 | 1.33 | 0.836 | 0.547 | 1.26 | 0.595 | 0.756
0.624 | 0.734 | 0.69 | LNPFIYSLRNC [OR1A2_Y288_W293C] | 1.45 | 2.72 | 1 | 4.37 | 0.826 | 5.22 | 0.902 | 1.11 | 1.2 | 6.28 | 0.792 | 1.04 | 1.24
0.455 | 0.694 | 0.803 | AKQVGCENAGT [PC_Y304_Y304C] | 0.749 | 0.83 | 0.42 | 0.487 | 0.407 | 0.408 | 0.391 | 0.706 | 0.484 | 0.428 | 0.638 | 0.442 | 0.455
1.22 | 1.56 | 1.59 | VVIVLYFSLWK [SLC6A2_Y249] | 0.703 | 1.13 | 0.314 | 0.241 | 0.254 | 0.42 | 0.486 | 0.64 | 0.459 | 0.348 | 0.942 | 0.39 | 0.453
2.71 | 1.97 | 1.41 | CPTIHYNFMCN [TP53_Y234_T230P_YF] | 1.09 | 1.17 | 0.646 | 0.557 | 0.576 | 0.655 | 0.687 | 0.916 | 0.79 | 0.603 | 0.757 | 0.501 | 0.596
0.47 | 0.938 | 0.762 | HVLEEYKPKQG [SAXO2_Y37_P34L] | 0.5 | 0.834 | 0.552 | 1.19 | 0.487 | 0.646 | 0.656 | 1.36 | 1.39 | 0.424 | 0.698 | 0.57 | 0.683
2.6 | 2.05 | 1.06 | SLFNGYVYSGM [NEIL3_Y71_V76M] | 0.844 | 0.994 | 0.581 | 5.64 | 0.653 | 2.72 | 0.585 | 1.15 | 0.659 | 5.4 | 0.625 | 0.548 | 0.579
1.11 | 1.84 | 1.53 | VFDMLYQLANL [USP24_Y1087] | 1.52 | 1.08 | 14.1 | 3 | 1.32 | 3.29 | 0.754 | 0.874 | 0.82 | 5.01 | 0.945 | 2.5 | 1.34
0.721 | 1.21 | 1.35 | SSPQLYLVPFL [TAF4_Y652_P651L] | 1.3 | 0.974 | 1.23 | 0.7 | 4.26 | 0.907 | 2.18 | 7 | 2.11 | 0.721 | 13.2 | 7.97 | 3.08
